The labels stand for the following.
B1: TPR 5TU (parent)
chain: GGAUCUUCUCGAUCUAACAAAAAAGACAAAUCUGCCACAAAGCUUGAGAGCAUCUUCGGAUGCAGAGGCGGCAGCCUUCGGUGGCGCGAUAGCGCCAACGUUCUCAACUAUGACACGCAAAACGCGUGCUCCGUUGAAUGGAGUUUAUCAUG

Variants at the floor of the assay were thinned out.

This series covers variants of B1. Briefly: polymerase ribozyme fitness, log enrichment relative to wild type (log ratio); higher = more active; in vitro selection for triplet polymerase activity. In outline:
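Genotype fitness is the logarithm of its enrichment divided by wild-type enrichment, using inverse-variance-weighted averages of replicates. That logarithm is base 2. Enrichment was measured by Illumina sequencing of input and output libraries from one triplicate in vitro selection round, with frozen incubation at −7 °C, on PCR-built, transcribed mutant libraries of each subunit of a heterodimeric triplet polymerase ribozyme, retaining genotypes with ≥10 input reads and ≥1 read per output.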
Turning to G48C G70A C75G C87G C93G G140A G152A, the “polymerase ribozyme fitness (log ratio)” value was -4.11.
For the variant A49C U53A G81C A98U G100A C103A, the “polymerase ribozyme fitness (log ratio)” value is at most -4.2.
Under G48C U55A A122U stands 0.121; under A49U A73U C75A, at most -4.2.
The same measure for G48C U55A: -0.498; for A49C A52G G58C G84A C131G G133C U145A: at most -4.2; for A49C A66C G81C G83U C99U U101G C108U: at most -4.2.
As to A49C U55A, the “polymerase ribozyme fitness (log ratio)” value was at most -4.2.
A49G C95U: the “polymerase ribozyme fitness (log ratio)” value is -0.995.
The same measure for G48C A60G C76G G94C U104C C131U: at most -4.2; for A49C U56G G65U A73C C87A: at most -4.2.
Under A49C A52C C96A U102G U127C U148A stands at most -4.2; under A49C U61G G62A G81C, -4.13.
Under A49C U55A A66U C72A C85U stands at most -4.2; under G48C U145G, -0.0374.
For the variant A49C A97G U148C, the “polymerase ribozyme fitness (log ratio)” value was at most -4.2.
Consider A49C G86U C96G C123U U146G, for which the “polymerase ribozyme fitness (log ratio)” value is at most -4.2.
As to A49C C95U C96G, the “polymerase ribozyme fitness (log ratio)” value was -3.85.
Under A49G C93A U134A U146G stands at most -4.2; under A49U C69G C75A U90G, at most -4.2; under A49C A52C A66G G86C A119G, at most -4.2.
The same measure for A49C G94C U104G: at most -4.2.
Under G50A A115G stands -2.49; under A49C C85U, -3.49.
For the variant G48C C125G, the “polymerase ribozyme fitness (log ratio)” value was -0.571.
As to A49C U56A A60U, the “polymerase ribozyme fitness (log ratio)” value was at most -4.2.
Regarding A49C G50C U53A C79A A137U, the “polymerase ribozyme fitness (log ratio)” value was at most -4.2.
Regarding G48C A49G U55G A66U C85U A97C G126C, the “polymerase ribozyme fitness (log ratio)” value was at most -4.2.
The same measure for A49U C116G C149U: -4.18.
With G48C C63U A142G, the “polymerase ribozyme fitness (log ratio)” value was -1.03.
Take A49C G70A C75G C93G A97C C116G C118G: the “polymerase ribozyme fitness (log ratio)” value was at most -4.2.
The same measure for A49C C57U: -3.72; for A49C C72A C108A U135G: at most -4.2.
Under A49C C79G G94C stands at most -4.2.
In the case of A49G G133C, the “polymerase ribozyme fitness (log ratio)” value was -2.21.
With A49G A106G, the “polymerase ribozyme fitness (log ratio)” value is -1.08.
Under G48U U82G C96G stands -1.48; under A49G G140C, -3.88.
With A49G G140A, the “polymerase ribozyme fitness (log ratio)” value is -3.77.
The same measure for A49G C75G U77A U82C C93G C125U U134C U146C A147U: at most -4.2; for G48C G50U G92C U145G: -4.11; for G48C G126U: -0.372.
On to G48C C51U C69A C116G, for which the “polymerase ribozyme fitness (log ratio)” value is at most -4.2.
The same measure for A49C G50C G67C C72G G84A C108A A142G A147U: at most -4.2; for A49C G86A C129A C132U U148A G152U: at most -4.2.
In the case of A49U C54G U55A G59A A60G U90G A106U G124C, the “polymerase ribozyme fitness (log ratio)” value is at most -4.2.
Under A49G C96U stands -0.233.
The same measure for A49G C96G: -1.61; for A49U G59A A115U A119C: -3.36; for A49C C75U C76A U77G G81U C87U C93U G94A C131G U134G: at most -4.2.
The same measure for A49G G62U C63U C96A A122U: -3.19; for G48C G50U G59U U82A G92C: -3.41.
As for G48U G65A C95U C105U C129G C132U, the “polymerase ribozyme fitness (log ratio)” value is at most -4.2.
Under A49G A73G stands -0.67; under A49C A89U G92C U104G U127G A142G, at most -4.2; under A49C C69A C79U G83U G94U U104A, at most -4.2.
Turning to G50A, the “polymerase ribozyme fitness (log ratio)” value is -1.02.
G50A A64C C95G C114U: the “polymerase ribozyme fitness (log ratio)” value is at most -4.2.
A49U A89U C132U: the “polymerase ribozyme fitness (log ratio)” value is -2.65.
Consider A49U C93U, for which the “polymerase ribozyme fitness (log ratio)” value was -1.38.
As to G48C A115G G133A, the “polymerase ribozyme fitness (log ratio)” value is -3.85.
With G48U C116U, the “polymerase ribozyme fitness (log ratio)” value is -0.65.
As for A49G G50A C95U U145C, the “polymerase ribozyme fitness (log ratio)” value is -2.54.
As to G48C U55A A107U U111G, the “polymerase ribozyme fitness (log ratio)” value was at most -4.2.
The same measure for A49C C51G: -4.14.
As to G48U G59C G81A A97U, the “polymerase ribozyme fitness (log ratio)” value is -1.88.
Take G50A A91U G100U C125A: the “polymerase ribozyme fitness (log ratio)” value was at most -4.2.
For A49C C93A, the “polymerase ribozyme fitness (log ratio)” value was at most -4.2.
The same measure for G48C G84A A121G U134A G143A: -3.91; for A49U G50C G65C A97U U101G C129G G143U: at most -4.2.
The same measure for A49G G71A C93G: at most -4.2; for A49G G50A G140U: -3.96; for A49G C75U C96G: -2.68.
Under A49C G68A C96U A98C C108G stands at most -4.2; under A49U G136A G141A, -0.805; under G48C C87G G88C A91G A119U U134G, at most -4.2.
G48C A73U U135G: the “polymerase ribozyme fitness (log ratio)” value was at most -4.2.
For G48C U53C C87U U145C, the “polymerase ribozyme fitness (log ratio)” value was -2.69.
As for A49G U56G G83C, the “polymerase ribozyme fitness (log ratio)” value was -2.85.
Under G48C G94A stands -0.224; under A49C A52G C72A, at most -4.2.
For A49G U55A, the “polymerase ribozyme fitness (log ratio)” value was -0.644.
Under A49C G81U G84U C125G G141C A150U stands at most -4.2.
